Experimental data: patent US20240317838A1, “LACTOFERRIN COMPOSITIONS AND METHODS OF USE” (LACTEA THERAPEUTICS LLC, priority 2021, published 2024)

Assays:
ECM of the buccal cells = experiment: ECM binding by immunofluorescence imaging in primary buccal cells; type: cell-based; conditions: 100 μg/mL, 1 hr at 37 C
Protocol: Primary buccal cells were next cultured according to a standard protocol (e.g., see Russo et al. Cytotechnology. 2016 October; 68(5): 2105-2114; herein incorporated by reference for all purposes). […] Immunofluorescence imaging was performed as previously described.

[1] = DSC iron binding capability with 1000× molar excess FeCl3; type: physicochemical; conditions: FeCl3 in 1000× molar excess
Protocol: The DSC assay was further used to assess Lactoferrin bioactivity, specifically the iron binding capability of the API-E2 Lactoferrin. Iron chloride (FeCl3) was added in 1000× molar excess to API-E2 Lactoferrin. In the presence of excess iron, the API-E2 lactoferrin will bind the iron to its open iron binding site.

lactoperoxidase (LPO) = experiment: Enzymatic assay for lactoperoxidase (LPO) activity; type: biochemical; conditions: colorimetric, turns blue in the presence of peroxidase activity
Text: An enzymatic assay for lactoperoxidase (LPO) activity was developed utilizing a molecule which in the presence of peroxidase activity turns a blue color.

[2] = Differential Scanning calorimetry (DSC) of lactoferrin samples; type: physicochemical
Protocol: Di[…] calorimetry (DSC) was used to assess the hololactoferrin and apolactoferrin forms through monitoring unfolding temperatures of lactoferrin samples using a nanoDSC (TA Instruments, Lindon, UT) according to standard DSC protocols known to those of skill in the art (e.g., see Hinz et al “M[…] OF RESULTS OBTAINED ON […] DI[…] CALORIMETRY”; herein incorporated by reference for all purposes.
API-E2 Lactoferrin (10 mg/mL), produced as described herein, was assessed by DSC. […] The lack of other peaks indicates the lack of contaminants and impurities and can assess API-E2 as ˜100%. […] Additionally, the lack of other peaks also indicated the purity of API-E2 Lactoferrin. […] The API-E2 hololactoferrin peak has a Tm of 88.38+/−0.8 C and a delta H of 632.7+/−7.2 kJ/mol. The hololactoferrin natively accounted for on average 8.74+/−1.39% of the total API-E2 lactoferrin with apolactoferrin accounting for the rest in the samples tested. However, the hololactoferrin percentage can be naturally variable. The API-E2 was calculated by this technique to contain virtually 100% pure lactoferrin.
The assay was also performed with heat-treated API-E2 Lactoferrin. API-E2 Lactoferrin was heated across a range of 50-100° C.

[3] = tested on: Salivary bacteria (including Lactobacillus, Lactococcus, and Streptococcus mutans); experiment: Salivary bacteria acid production by pH testing; type: cell-based; conditions: in the presence of sucrose
Protocol: Salivary bacteria (including Lactobacillus, Lactococcus, and Streptococcus mutans) produce acid during growth. This acidification is strongly associated with tooth decay, particularly when it results in pH below 5.5, which is a clinically relevant threshold. A slurry of these bacteria were treated with sucrose to stimulate growth, as well as varying concentrations of API-E2 lactoferrin. Upon the addition of sucrose and API-E2 lactoferrin, the pH was adjusted to 7 through a titration and the change in pH was subsequently monitored over the next 6 hours.

Row | Molecule | ECM association of Lactoferrin (ECM of the buccal cells) | available Apolactoferrin shifted to the Hololactoferrin form upon addition of excess iron [1] [%] | LPO enzymatic activity of the sample (lactoperoxidase (LPO)) | % of Total, apolactoferrin ([2]; native, no added iron) | pH maintained for the entire 6 hour testing period ([3]; 1 mg/mL) | pH maintained for the entire 6 hour testing period ([3]; 10 mg/mL) | DSC peaks observed (apolactoferrin and hololactoferrin) ([2]; conditions as for API-E2) | apolactoferrin peak denaturation temperature ([2]; conditions as for API-E2) [°C] | hololactoferrin peak denaturation temperature ([2]; conditions as for API-E2) [°C]
1 | API-E2: bovine lactoferrin purified from raw, untreated milk by cation exchange chromatography and filtration according to Example 1 (protein) APRKNVRWCTISQPEWFKCRRWQWRMKKLGAPSITCVRRAFALECIRAIAEKKADAVTLDGGMVFEAGRDPYKLRPVAAEIYGTKESPQTHYYAVAVVKKGSNFQLDQLQGRKSCHTGLGRSAGWVIPMGILRPYLSWTESLEPLQGAVAKFFSASCVPCIDRQAYPNLCQLCKGEGENQCACSSREPYFGYSGAFKCLQDGAGDVAFVKETTVFENLPEKADRDQYELLCLNNSRAPVDAFKECHLAQVPSHAVVARSVDGKEDLIWKLLSKAQEKFGKNKSRSFQLFGSPPGQRDLLFKDSALGFLRIPSKVDSALYLGSRYLTTLKNLRETAEEVKARYTRVVWCAVGPEEQKKCQQWSQQSGQNVTCATASTTDDCIVLVLKGEADALNLDGGYIYTAGKCGLVPVLAENRKTSKYSSLDCVLRPTEGYLAVAVVKKANEGLTWNSLKDKKSCHTAVDRTAGWNIPMGLIVNQTGSCAFDEFFSQSCAPGRDPKSRLCALCAGDDQGLDKCVPNSKEKYYGYTGAFRCLAEDVGDVAFVKNDTVWENTNGESTADWAKNLNREDFRLLCLDGTRKPVTEAQSCHLAVAPNHAVVSRSDRAAHVKQVLLHQQALFGKNGKNCPDKFCLFKSETKNLLFNDNTECLAKLGGRPTYEEYLGTEYVTAIANLKKCSTSPLLEACAFLTR | strong binding along the ECM | 100 | neither detected by M/S or by the enzymatic assay | 91.26 +/− 1.39% ^ | above 5.5 | above 5.5 | – | – | –
2 | Lab-grade standard lactoferrin: commercially available Sigma lab-grade standard lactoferrin (L9507) (protein, UniProt P24627 20-708, looked up) Lactotransferrin: APRKNVRWCTISQPEWFKCRRWQWRMKKLGAPSITCVRRAFALECIRAIAEKKADAVTLDGGMVFEAGRDPYKLRPVAAEIYGTKESPQTHYYAVAVVKKGSNFQLDQLQGRKSCHTGLGRSAGWIIPMGILRPYLSWTESLEPLQGAVAKFFSASCVPCIDRQAYPNLCQLCKGEGENQCACSSREPYFGYSGAFKCLQDGAGDVAFVKETTVFENLPEKADRDQYELLCLNNSRAPVDAFKECHLAQVPSHAVVARSVDGKEDLIWKLLSKAQEKFGKNKSRSFQLFGSPPGQRDLLFKDSALGFLRIPSKVDSALYLGSRYLTTLKNLRETAEEVKARYTRVVWCAVGPEEQKKCQQWSQQSGQNVTCATASTTDDCIVLVLKGEADALNLDGGYIYTAGKCGLVPVLAENRKSSKHSSLDCVLRPTEGYLAVAVVKKANEGLTWNSLKDKKSCHTAVDRTAGWNIPMGLIVNQTGSCAFDEFFSQSCAPGADPKSRLCALCAGDDQGLDKCVPNSKEKYYGYTGAFRCLAEDVGDVAFVKNDTVWENTNGESTADWAKNLNREDFRLLCLDGTRKPVTEAQSCHLAVAPNHAVVSRSDRAAHVKQVLLHQQALFGKNGKNCPDKFCLFKSETKNLLFNDNTECLAKLGGRPTYEEYLGTEYVTAIANLKKCSTSPLLEACAFLTR | only limited ECM association | – | does not result in a positive enzymatic reaction | – | – | – | significantly smaller than those observed for API-E2 and less defined | 55 | 85
3 | heat-treated API-E2 Lactoferrin: API-E2 Lactoferrin heated across a range of 50-100° C. (protein, UniProt P24627 20-708, looked up, heat-treated) Lactotransferrin: APRKNVRWCTISQPEWFKCRRWQWRMKKLGAPSITCVRRAFALECIRAIAEKKADAVTLDGGMVFEAGRDPYKLRPVAAEIYGTKESPQTHYYAVAVVKKGSNFQLDQLQGRKSCHTGLGRSAGWIIPMGILRPYLSWTESLEPLQGAVAKFFSASCVPCIDRQAYPNLCQLCKGEGENQCACSSREPYFGYSGAFKCLQDGAGDVAFVKETTVFENLPEKADRDQYELLCLNNSRAPVDAFKECHLAQVPSHAVVARSVDGKEDLIWKLLSKAQEKFGKNKSRSFQLFGSPPGQRDLLFKDSALGFLRIPSKVDSALYLGSRYLTTLKNLRETAEEVKARYTRVVWCAVGPEEQKKCQQWSQQSGQNVTCATASTTDDCIVLVLKGEADALNLDGGYIYTAGKCGLVPVLAENRKSSKHSSLDCVLRPTEGYLAVAVVKKANEGLTWNSLKDKKSCHTAVDRTAGWNIPMGLIVNQTGSCAFDEFFSQSCAPGADPKSRLCALCAGDDQGLDKCVPNSKEKYYGYTGAFRCLAEDVGDVAFVKNDTVWENTNGESTADWAKNLNREDFRLLCLDGTRKPVTEAQSCHLAVAPNHAVVSRSDRAAHVKQVLLHQQALFGKNGKNCPDKFCLFKSETKNLLFNDNTECLAKLGGRPTYEEYLGTEYVTAIANLKKCSTSPLLEACAFLTR | – | – | – | – | – | – | loss in both detectable peaks | – | –
